Data on four variants can be found in IntAct's records for PubMed 23066109.

Sequences and labels used below:
B1: Tudor domain-containing protein 3 (Homo sapiens), Q9H7E2 (parent)
chain: MLRLQMTDGHISCTAVEFSYMSKISLNTPPGTKVKLSGIVDIKNGFLLLNDSNTTVLGGEVEHLIEKWELQRSLSKHNRSNIGTEGGPPPFVPFGQKCVSHVQVDSRELDRRKTLQVTMPVKPTNDNDEFEKQRTAAIAEVAKSKETKTFGGGGGGARSNLNMNAAGNRNREVLQKEKSTKSEGKHEGVYRELVDEKALKHITEMGFSKEASRQALMDNGNNLEAALNVLLTSNKQKPVMGPPLRGRGKGRGRIRSEDEEDLGNARPSAPSTLFDFLESKMGTLNVEEPKSQPQQLHQGQYRSSNTEQNGVKDNNHLRHPPRNDTRQPRNEKPPRFQRDSQNSKSVLEGSGLPRNRGSERPSTSSVSEVWAEDRIKCDRPYSRYDRTKDTSYPLGSQHSDGAFKKRDNSMQSRSGKGPSFAEAKENPLPQGSVDYNNQKRGKRESQTSIPDYFYDRKSQTINNEAFSGIKIEKHFNVNTDYQNPVRSNSFIGVPNGEVEMPLKGRRIGPIKPAGPVTAVPCDDKIFYNSGPKRRSGPIKPEKILESSIPMEYAKMWKPGDECFALYWEDNKFYRAEVEALHSSGMTAVVKFIDYGNYEEVLLSNIKPIQTEAWEEEGTYDQTLEFRRGGDGQPRRSTRPTQQFYQPPRARN

Variants of B1 are the subject of the first assay. The note with it: with rpb1_human POLR2A.
Consider Y566F, for which the “effect of a mutation on the interaction” value is recorded as “disrupting interaction”.

Regarding Y566W, the “effect of a mutation on the interaction” value is “increasing interaction”.

For W567S, the “effect of a mutation on the interaction” value is “decreasing interaction”.

D569A: the “effect of a mutation on the interaction” value is reported as “disrupting interaction”.

A further assay covers variants of B1. The note with it: with rpb1_human POLR2A. This is another data set of the same source.
As to Y566F, the “effect of a mutation on the interaction” value is reported as “with no effect”.
